Experimental findings from patent US20220064286A1 (Genentech, published 2022) are described below.

Where a chain is given by its changes, count along the chain named. Names may count otherwise.

By Kd is commonly meant the constant that tells how readily two partners part at equilibrium. As a reminder, the koff is a measure of how fast the partners let go of each other. In general, kon refers to a measure of how fast the partners come together.

To fix the notation:
B1: h7E7.L1H3 (antibody, V domains shown)
VH: EVQLVQSGAEVKKPGASVKVSCKASGYTFTEYSIYWVRQAPGQRLEIMGRIDPKNGRTYYVDKFKNRATLTADTSASTAYMELSSLRSEDTAVYFCTRIYGFYFDFWGQGTLVTVSS
VL: DIQLTQSPSFLSASVGDRVTITCKGSQNVNKYLVWYQQKPGKAPKLLIYNTDNLQSGIPSRFSGSGSGTEYTLTISSLQPEDFATYFCYQYNNGFTFGQGTKVEIK
notes: VH: I48M against h7E7.L1H1; FR/HVR pieces
B2: h15C8.L1H8 (antibody, V domains shown)
VH: B1 VH with Y32H, V37L, M48I, Y60F, A72T, F95Y, T97A, Y100D
VL: B1 VL with N50S
notes: VH: F91Y against h15C8.L1H1; FR/HVR pieces
B3: h15C8.L4H1 (antibody, V domains shown)
VH: B1 VH with Y32H, V37L, M48I, Y60F, A72T, T97A, Y100D
VL: B1 VL with N50S, F87Y
notes: VL: F87Y against h15C8.L1H1; FR/HVR pieces
B4: h15C8.L1H5 (antibody, V domains shown)
VH: B1 VH with Y32H, V37L, M48I, Y60F, A68V, A72T, T97A, Y100D
VL: B1 VL with N50S
notes: VH: A67V against h15C8.L1H1; FR/HVR pieces
B5: h15C8.L5aH9a (antibody, V domains shown)
VH: B1 VH with Y32H, V37L, Y60F, L70I, A72T, F95Y, T97A, Y100D
VL: B1 VL with N50S, I58V, F87Y
notes: Final humanized 15C8; keeps rat VH I47, L37, A67, T71 and VL Y71; FR/HVR pieces
B6: h7E7.L1H5 (antibody, V domains shown)
VH: B1 VH with M48I, L70I
VL: B1 VL
notes: VH: L69I (printed L691) against h7E7.L1H1; FR/HVR pieces
B7: h15C8.L1H6 (antibody, V domains shown)
VH: B1 VH with Y32H, V37L, M48I, Y60F, L70I, A72T, T97A, Y100D
VL: B1 VL with N50S
notes: VH: L69I (printed L691) against h15C8.L1H1; FR/HVR pieces
B8: h15C8.L1H2 (antibody, V domains shown)
VH: B1 VH with Y32H, M48I, Y60F, A72T, T97A, Y100D
VL: B1 VL with N50S
notes: VH: L37V against h15C8.L1H1; FR/HVR pieces
B9: h7E7.L1H6 (antibody, V domains shown)
VH: B1 VH with M48I, A72R
VL: B1 VL
notes: VH: A71R against h7E7.L1H1; FR/HVR pieces
B10: h15C8.L3H1 (antibody, V domains shown)
VH: B1 VH with Y32H, V37L, M48I, Y60F, A72T, T97A, Y100D
VL: B1 VL with N50S, Y71F
notes: VL: Y71F against h15C8.L1H1; FR/HVR pieces
B11: h15C8.L1H7 (antibody, V domains shown)
VH: B1 VH with Y32H, V37L, M48I, Y60F, A72R, T97A, Y100D
VL: B1 VL with N50S
notes: VH: T71R against h15C8.L1H1; FR/HVR pieces
B12: h7E7.L1H8 (antibody, V domains shown)
VH: B1 VH with M48I, T97A
VL: B1 VL
notes: VH: T93A against h7E7.L1H1; FR/HVR pieces
B13: h7E7.L4H1 (antibody, V domains shown)
VH: B1 VH with M48I
VL: B1 VL with F87Y
notes: VL: F87Y against h7E7.L1H1; FR/HVR pieces
B14: h7E7.L3H1 (antibody, V domains shown)
VH: B1 VH with M48I
VL: B1 VL with Y71F
notes: VL: Y71F against h7E7.L1H1; FR/HVR pieces
B15: h15C8.L2H1 (antibody, V domains shown)
VH: B1 VH with Y32H, V37L, M48I, Y60F, A72T, T97A, Y100D
VL: B1 VL with N50S, I58V
notes: VL: I58V against h15C8.L1H1; FR/HVR pieces
B16: h15C8.L1H4 (antibody, V domains shown)
VH: B1 VH with Y32H, V37L, Y60F, A72T, T97A, Y100D
VL: B1 VL with N50S
notes: VH: I48M against h15C8.L1H1; FR/HVR pieces
B17: h7E7.L1H4 (antibody, V domains shown)
VH: B1 VH with M48I, A68V
VL: B1 VL
notes: VH: A67V against h7E7.L1H1; FR/HVR pieces
B18: h15C8.L5H1 (antibody, V domains shown)
VH: B1 VH with Y32H, V37L, M48I, Y60F, A72T, T97A, Y100D
VL: B1 VL with N50S, I58V, Y71F, F87Y
notes: VL: I58V, Y71F, F87Y against h15C8.L1H1; FR/HVR pieces
B19: h7E7.L1H7 (antibody, V domains shown)
VH: B1 VH with M48I, F95Y
VL: B1 VL
notes: VH: F91Y against h7E7.L1H1; FR/HVR pieces
B20: h7E7.L5H1 (antibody, V domains shown)
VH: B1 VH with M48I
VL: B1 VL with I58V, Y71F, F87Y
notes: VL: I58V, Y71F, F87Y against h7E7.L1H1; FR/HVR pieces
B21: h7E7.L2H1 (antibody, V domains shown)
VH: B1 VH with M48I
VL: B1 VL with I58V
notes: VL: I58V against h7E7.L1H1; FR/HVR pieces

Sequence of cynomolgus monkey (cyno) TIGIT protein (A0A7N9I9V4 entry or part of it): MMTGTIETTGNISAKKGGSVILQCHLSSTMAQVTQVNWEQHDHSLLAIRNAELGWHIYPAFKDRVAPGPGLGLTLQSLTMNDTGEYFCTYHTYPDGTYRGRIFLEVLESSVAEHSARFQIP

The target of one assay is T1, human TIGIT protein (human, UniProt Q495A1 22-141, limits assumed).
T1 construct: Recombinant protein (Genentech) used in ELISA screening and as SPR analyte; also called TIGIT antigen
T1 sequence: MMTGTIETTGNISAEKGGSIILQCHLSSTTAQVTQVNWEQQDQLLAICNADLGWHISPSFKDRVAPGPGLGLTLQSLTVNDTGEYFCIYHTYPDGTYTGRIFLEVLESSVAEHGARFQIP
Kind of assay: SPR, captured mAb. How it is done:
(§1) Briefly, a series S CM5 biosensor chip was activated with N-ethyl-N′-(3-dimethylaminopropyl)-carbodiimide hydrochloride (EDC) and N-hydroxysuccinimide (NHS) reagents according to the supplier's (GE Healthcare Biosciences, Piscataway, N.J.) instructions, and a human antibody capture kit was applied to couple goat anti-human Fc IgGs in order to achieve approximately 10,000 response units (RU) on each flow cell, followed by blocking un-reacted groups with 1M ethanolamine.
(§2) (flow rate: 30 μl/min) with no regeneration between injections. The sensorgrams were recorded and evaluated by BIAcore™ T200 Evaluation Software (version 2.0) after subtraction of reference cell signal. Association rates (kₒₙ) and dissociation rates (koff) were calculated using a simple one-to-one Langmuir binding model. The equilibrium dissociation constant (KD) was calculated as the ratio koff/kₒₙ.
(§3) The first humanized versions, h6B2, L1H1, h10A5.L1H1, h7E7, L1H1, and h15C8.L1H1, which contain both rat CDRs and framework residues at Vernier positions, and the fully humanized versions, h6B2.L2H5, h10A5.L4H4, h7E7.L5H9, and h15C8.L5H9, which contain only rat CDRs were subject to BIAcore affinity measurement by comparison with original rat antibodies, rat6B2, rat10A5, rat7E7 and rat 15C8. For binding affinity determinations of TIGIT antibodies against human TIGIT, cynomolgus monkey TIGIT and human alanine-scanned TIGIT mutants by single-cycle kinetics, Surface Plasmon Resonance (SRP) measurement with a BIACORE™-T200 instrument was used, as described above.
(In general: In SPR one partner is held on a chip, and binding of the other changes the refractive index at the surface.)
B1: the affinity, expressed as Kd, was 0.38 nM; the koff is 0.00107 s⁻¹; the kon was determined as 2.82e+06 M⁻¹ s⁻¹.
Molecule B2 registered a Kd of 0.61 nM, a koff of 0.000381 s⁻¹ and a kon of 620000 M⁻¹ s⁻¹.
In the same order, the values of B3 are 0.64 nM, 0.000611 s⁻¹ and 955000 M⁻¹ s⁻¹.
For the molecule B4, the affinity, expressed as Kd, was 0.71 nM; the koff worked out at 0.000567 s⁻¹; the kon stood at 798000 M⁻¹ s⁻¹.
For B5 the same measures were 0.38 nM, 0.000421 s⁻¹ and 1.12e+06 M⁻¹ s⁻¹.
B6 returned a Kd of 0.4 nM, a koff of 0.00129 s⁻¹ and a kon of 3.24e+06 M⁻¹ s⁻¹.
On to B7, for which the equilibrium dissociation constant (Kd) worked out at 0.55 nM, the koff worked out at 0.000756 s⁻¹ and the kon turned out to be 1.38e+06 M⁻¹ s⁻¹.
Molecule B8 returned a Kd of 1.03 nM, a koff of 0.00107 s⁻¹ and a kon of 1.04e+06 M⁻¹ s⁻¹.
With B9, the Kd turned out to be 0.35 nM, the koff came to 0.000648 s⁻¹ and the kon is 1.85e+06 M⁻¹ s⁻¹.
Take B10: binding was put at a Kd of 0.84 nM, the koff came to 0.000533 s⁻¹ and the kon is 631000 M⁻¹ s⁻¹.
Regarding B11, the Kd stood at 0.98 nM, the koff was 0.000597 s⁻¹ and the kon was found to be 610000 M⁻¹ s⁻¹.
In the same order, the values of B12 are 0.36 nM, 0.00101 s⁻¹ and 2.78e+06 M⁻¹ s⁻¹.
Take B13: the Kd amounted to 0.27 nM, the koff came to 0.000796 s⁻¹ and the kon amounted to 2.95e+06 M⁻¹ s⁻¹.
Molecule B14 returned a Kd of 0.24 nM, a koff of 0.000218 s⁻¹ and an on-rate (kon) of 920000 M⁻¹ s⁻¹.
B15 yielded a Kd of 0.66 nM, a koff of 0.000506 s⁻¹ and a kon of 771000 M⁻¹ s⁻¹.
Turning to B16, the affinity, expressed as Kd, was 0.59 nM; the koff was determined as 0.000498 s⁻¹; the kon came out at 841000 M⁻¹ s⁻¹.
On to B17, for which the Kd stood at 0.27 nM, the koff was 0.000749 s⁻¹ and the kon was found to be 2.79e+06 M⁻¹ s⁻¹.
As to B18, the affinity, expressed as Kd, was 0.83 nM; the koff is 0.000562 s⁻¹; the kon was 674000 M⁻¹ s⁻¹.
B19 yielded a Kd of 0.31 nM, a koff of 0.000849 s⁻¹ and a kon of 2.74e+06 M⁻¹ s⁻¹.
In the same order, the values of B20 are 0.32 nM, 0.00104 s⁻¹ and 3.21e+06 M⁻¹ s⁻¹.
Consider B21, for which the Kd worked out at 0.24 nM, the koff is 0.000504 s⁻¹ and the kon came out at 2.06e+06 M⁻¹ s⁻¹.

A further assay concerns the target cynomolgus monkey (cyno) TIGIT protein (cynomolgus monkey, UniProt A0A7N9I9V4 89-209). Kind of assay: SPR, captured mAb. The protocol: as §1, §2, §3
B1 yielded a Kd of 0.42 nM, a koff of 0.000381 s⁻¹ and a kon of 908000 M⁻¹ s⁻¹.
Molecule B2 registered a Kd of 0.41 nM, a koff of 0.000119 s⁻¹ and a kon of 291000 M⁻¹ s⁻¹.
B3 displayed a Kd of 1.15 nM, a koff of 0.000559 s⁻¹ and a kon of 485000 M⁻¹ s⁻¹.
In turn, B4 yielded a Kd of 1.15 nM, a koff of 0.000558 s⁻¹ and an association rate constant (kon) of 484000 M⁻¹ s⁻¹.
As for B5, the Kd stood at 1.03 nM, the koff was determined as 0.000613 s⁻¹ and the kon was 596000 M⁻¹ s⁻¹.
In turn, B6 showed a Kd of 0.4 nM, a koff of 0.000359 s⁻¹ and a kon of 898000 M⁻¹ s⁻¹.
B7 had a Kd of 0.84 nM, a koff of 0.000556 s⁻¹ and a kon of 663000 M⁻¹ s⁻¹.
With B8, the Kd was 2.1 nM, the koff was 0.000806 s⁻¹ and the kon was 382000 M⁻¹ s⁻¹.
B9 showed a Kd of 0.44 nM, a koff of 0.000284 s⁻¹ and a kon of 641000 M⁻¹ s⁻¹.
B10 gave a Kd of 1.75 nM, a koff of 0.000588 s⁻¹ and a kon of 336000 M⁻¹ s⁻¹.
B11: the Kd is 0.94 nM, the koff turned out to be 0.000206 s⁻¹ and the kon was determined as 219000 M⁻¹ s⁻¹.
On to B12, for which the Kd came to 0.39 nM, the koff amounted to 0.000331 s⁻¹ and the kon was 845000 M⁻¹ s⁻¹.
B13 registered a Kd of 0.44 nM, a koff of 0.000274 s⁻¹ and a kon of 629000 M⁻¹ s⁻¹.
The molecule B14 showed a Kd of 0.95 nM, a koff of 0.00122 s⁻¹ and a kon of 1.28e+06 M⁻¹ s⁻¹.
For the molecule B15, the Kd is 1 nM, the koff worked out at 0.000502 s⁻¹ and the kon is 502000 M⁻¹ s⁻¹.
Consider B16, for which the Kd was 1.05 nM, the off-rate (koff) stood at 0.000558 s⁻¹ and the kon stood at 532000 M⁻¹ s⁻¹.
As for B17, binding was characterised by a dissociation constant (Kd) of 0.4 nM, the koff stood at 0.000243 s⁻¹ and the kon is 601000 M⁻¹ s⁻¹.
For B18 the same measures were 2.68 nM, 0.000752 s⁻¹ and 281000 M⁻¹ s⁻¹.
As for B19, binding was put at a Kd of 0.43 nM, the koff amounted to 0.000286 s⁻¹ and the kon came out at 664000 M⁻¹ s⁻¹.
In turn, B20 had a Kd of 0.56 nM, a koff of 0.000324 s⁻¹ and a kon of 575000 M⁻¹ s⁻¹.
In the case of B21, the Kd worked out at 0.36 nM, the koff turned out to be 0.000179 s⁻¹ and the kon amounted to 493000 M⁻¹ s⁻¹.
